# “Also recorded” adds a separate entry of the source. Ends that are not written are not given here.
# What was measured:
# CTGF = biological target: T1, CTGF (Mus musculus, UniProt P29268); experiment: DAB chromogenic imaging of DGC-labelled mouse brain sections; design: species or system APP/PS1 and wild-type C57BL/6J mice; details: 200 μM DGC + DAB
# T1 construct: brain sections of the age-matched wild-type C57BL/6J mice were used as controls; from tissue; host or cells: brain of APP/PS1 transgenic and wild-type C57BL/6J mice (sections, living animal, perfused isolated brain)
# T1 sequence (P29268 26-348): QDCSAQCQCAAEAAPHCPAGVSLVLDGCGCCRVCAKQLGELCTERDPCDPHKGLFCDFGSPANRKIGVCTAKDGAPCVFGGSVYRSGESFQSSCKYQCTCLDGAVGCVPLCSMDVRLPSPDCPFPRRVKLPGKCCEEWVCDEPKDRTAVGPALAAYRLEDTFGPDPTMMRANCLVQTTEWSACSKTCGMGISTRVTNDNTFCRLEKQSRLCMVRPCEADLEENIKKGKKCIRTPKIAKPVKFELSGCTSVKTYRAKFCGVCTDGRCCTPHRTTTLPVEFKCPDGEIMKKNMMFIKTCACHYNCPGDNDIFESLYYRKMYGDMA
# Description: To observe the expression level of CTGF in the brain section with the naked eye, we optimized the conditions for labeling WT mice, 3-month-old APP/PS1 mice and 9-month-old APP/PS1 mice stained with DGC. According to the study, the optimal incubation concentration of DGC (200 μM) was used to determine the conditions using the DAB Horseradish Peroxidase Color Development Kit. After the brain sections were co-stained by DGC (200 μM) at 4 °C overnight, a DAB chromogenic agent was added to the brain sections. […] After the brown product was imaged by optical microscopy and analyzed by Image Pro Plus software.
# [1] = Effect of DGC on blood biochemistry of mice; format: in vivo, C57BL/6J mice; details: DGC group, mean of 3 mice
# Text: (§1) In order to clarify the NIR-II signal in AD brains when in vivo imaging is arisen from the DGC probe that bound to CTGF, we selected 3-month-old APP/PS1 mice representing early-stage AD and the age-matched WT mice as control to performed ex vivo multimodal analysis of the brain sections. […] To exclude the influence of vascular retention, we emptied the cerebral vessels by cardiac perfusion and performed ex vivo imaging of the brains. […] For brain sections made from AD mice after tail vein injection of DGC, the red fluorescence observation and LA-ICP-TOF-MS of DGC, as well as a POD-like catalysis test were performed. […] In Fig. 6c, the colocalization of DGC (red fluorescence) and CTGF (green fluorescence) on the ex vivo brain sections confirmed the specificity of DGC targeting CTGF in vivo. To further identify the cellular target of DGC in the brain of APP/PS1 mice, we carried out immunofluorescence staining on the ex vivo brain sections after tail vein injection of DGC where cell-specific fluorescent antibodies for microglia (Iba 1), neurons (NeuN), vascular endothelial cell (CD31) and reactive astrocytes (GFAP) were applied. In Fig. 6d, DAG co-localizes with GFAP-positive active astrocytes and CD31-positive microvessels, but not with neurons or microglia. […] The biosafety of DGC in C57BL/6J mice under the NIR-II imaging condition was evaluated by blood tests (blood cells and biochemical analysis) and organ pathological analysis (H&E staining).
# [2] = Biosafety: blood tests and organ pathological analysis (H&E staining); format: in vivo; details: C57BL/6J mice, 20 mg/kg DGC, vs untreated normal mice
# Text: as §1, with “applied.” for “applied. In Fig. 6d, DAG co-localizes with GFAP-positive active astrocytes and CD31-positive microvessels, but not with neurons or microglia.”
# [3] = In vitro stability of DGC fluorescence on storage in PBS; format: physicochemical; details: two weeks storage in PBS
# Text: In this manuscript, Lu et al. reported a novel gold cluster-based probe modified with peptides that specifically bind to connective tissue growth factor (CTGF). Owing to the elevated expression of CTGF is an upstream regulator of amyloid-beta (Aβ) plaque, the probe holds a promise for potential application in the early diagnosis of Alzheimer's disease (AD). The unique feature of this probe is their capacity to emit near-infrared (NIR) light, rendering them suitable for in vivo imaging. Moreover, their ability to […]
# The article is well-crafted, and the experiments convincingly highlight the distinctive properties of the newly developed probe. […]
# following concerns are addressed.
# Reviewer 1: How long can the fluorescence last in the cells and AD brain, or how stable is the fluorescence of the probe?
# Response: We monitored the fluorescence changes of DGC probes in vitro, in U87MG cells and in brain of APP/PS1 mice, respectively. […]
# cultured U87MG cells, DGC probe could be well internalized, and obvious […]
# medium for 72 h (Fig R5). In APP/PS1 mice, we detected temporal changes of luminescence from DGC in the brain by in vivo NIR-II imaging. […]
# Figure R6. […] Monitoring fluorescence intensity of DGC in brain of WT mice and 3-month-old APP/PS1 mice for 24 h (left). […]
# [4] = Absolute quantum yield, integrated sphere technique; format: physicochemical
# Description: Figure R6. Stability of DGC in AD brains. Monitoring fluorescence intensity of DGC in brain of WT mice and 3-month-old APP/PS1 mice for 24 h (left). In vivo and ex vivo NIR-II imaging of brains after DGC injected for 24 h (right).
# The absolute quantum yield (QY) of DGC probe was measured to be ~0.7% using an […]
# for biological applications. Although this QY is not high, but sufficient to produce a bright signal in the AD mouse brain for detection in vivo in this study.
# Reviewer 3: The co-localization coefficient should be calculated in Figure 2d. […]
# was calculated by Image J software. The co-localization coefficient (Pearson's correlation coefficient) of DGC and CTGF antibodies in Figure 2d was 0.946 (Fig. R15).
# Figure R15. The co-localization coefficient (Pearson's correlation coefficient) of DGC and CTGF […]
substance,measurement,setting,value
"DGC: CTGF-targeting peptide-coated gold nanocluster: one Au26 gold nanocluster coated by eight DAG cyclic peptides, NIR-II and red fluorescence (CDAGRKQKC; also: cyclic peptide, ring not given here, eight peptides on one Au26 nanocluster via Cys Au-S bonds)",DAB chromogenic imaging intensity,"CTGF; 3-month-old APP/PS1 mouse brain section, section 1",0.198
same,DAB chromogenic imaging intensity,"CTGF; 3-month-old APP/PS1 mouse brain section, section 2",0.151
same,DAB chromogenic imaging intensity,"CTGF; 3-month-old APP/PS1 mouse brain section, section 3",0.127
same,DAB chromogenic imaging intensity,"CTGF; 9-month-old APP/PS1 mouse brain section, section 1",0.282
same,DAB chromogenic imaging intensity,"CTGF; 9-month-old APP/PS1 mouse brain section, section 2",0.35
same,DAB chromogenic imaging intensity,"CTGF; 9-month-old APP/PS1 mouse brain section, section 3",0.237
same,DAB chromogenic imaging intensity,"CTGF; WT mouse brain section, Image Pro Plus, section 1",0.03
same,DAB chromogenic imaging intensity,"CTGF; WT mouse brain section, Image Pro Plus, section 2",0.061
same,DAB chromogenic imaging intensity,"CTGF; WT mouse brain section, Image Pro Plus, section 3",0.019
same,Urea (UREA),[1],9.62 ± 1.25
same,Alanine aminotransferase (ALT),[1]; in U/L (unit assumed),32.8 ± 4.26
same,Alkaline phosphatase (ALP),[1]; in U/L (unit assumed),220.7 ± 27.07
same,Aspartate aminotransferase (AST),[1]; in U/L (unit assumed),120.2 ± 20.04
same,Creatinine (CREA),[1]; in µmol/L (unit assumed),22.67 ± 1.98
same,abnormalities in blood parameters and major organs,[2],did not induce any abnormalities in blood parameters and major organs
same,fluorescence intensity change on storage,[3],decreased only slightly; also recorded: decreased only
same,absolute quantum yield (QY),[4],~ 0.7%

# From paper PMC11169542, “A probe for NIR-II imaging and multimodal analysis of early Alzheimer’s disease by targeting CTGF” (Nature Communications, 2024)
